Test results reported in PMC2195822 (The Journal of Experimental Medicine, 2000).
Read-outs that look alike come from different tables or passages of the source. No end group written: not given here.

B1: soluble IL-2Rβ 31–230 (residues 31–230 of the IL-2Rβ chain, most of the extracellular part) (domain or fragment, human, UniProt P14784 31-230, looked up)
chain: TSQFTCFYNSRANISCVWSQDGALQDTSCQVHAWPDRRRWNQTCELLPVSQASWACNLILGAPDSQKLTTVDIVTLRVLCREGVRWRVMAIQDFKPFENLRLMAPISLQVVHVETHRCNISWEISQASHYFERHLEFEARTLSPGHTWEEAPLLTLKQKQEWICLETLTPDTQYEFQVRVKPLQGEFTTWSPWSQPLAFR

What was measured:
[1] = Diffusion–sedimentation equilibrium; format: physicochemical; settings: 150 μM peptide
[2] = target: the molecule itself; experiment: AUC
[3] = target: the molecule itself; experiment: AUC; remark: listed apart in the source
[4] = target: the molecule itself; experiment: AUC; remark: listed apart in the source
[5] = target: the molecule itself; experiment: AUC; remark: listed apart in the source

| Molecule | stoichiometry N [2] | stoichiometry N [3] | also measured |
| --- | --- | --- | --- |
| SSTKKTQLQLQ [p5–15] |  |  | quaternary structure at 150 μM [1]: dimers |
| APTSSSTKKTQLQLEHLLLDLQMILNGINN-NH2 [peptide p1–30 (amino acids 1–30 of human IL-2, covering the entire α helix A)] | 8 |  |  |
| APTSSSTKKTQLQLEHLLLDLQMILNGINNC [IL-2 peptide p1–30Cys] | 8 | 4 |  |
| APTSSSTKKTQLQLEHLLLDLQMILNGINNC(fluorescein)-NH2 [p1–30Cys labeled on the terminal Cys31 with a fluorescein group (p1–30Cys-FLC)] | 8 | 4 |  |
| TQLQLEHLLLDLQMILNGINN [IL-2 peptide p10–30] |  |  | stoichiometry N [4]: 4 |
| B1 |  |  | Kd [5]: 3 µM; stoichiometry N [5]: 2 |
